Read-outs that look alike come from different tables or passages of the source. Non-standard residues stand in square brackets, D forms with d. Residues, ends and D or L forms follow the SMILES beside them. Primed or numbered codes have the meaning given here. No end group written: not given here. *: point of attachment. FITC′ = fluorescein isothiocyanate tag added on resin (method C); FITC = O=C1OC2(c3ccc(O)cc3Oc3cc(O)ccc32)c2ccc(NC(=S)*)cc21; pT = C[C@@H](OP(=O)(O)O)[C@H](N)C(=O)O; pS = N[C@@H](COP(=O)(O)O)C(=O)O

Assay [1] addresses T1, 14-3-3ζ (Homo sapiens, UniProt P63104).
T1 construct: Full-length expression and purification of 14-3-3; made in house; host or cells: E. coli BL21 (DE3)STAR
T1 sequence (P63104 1-245): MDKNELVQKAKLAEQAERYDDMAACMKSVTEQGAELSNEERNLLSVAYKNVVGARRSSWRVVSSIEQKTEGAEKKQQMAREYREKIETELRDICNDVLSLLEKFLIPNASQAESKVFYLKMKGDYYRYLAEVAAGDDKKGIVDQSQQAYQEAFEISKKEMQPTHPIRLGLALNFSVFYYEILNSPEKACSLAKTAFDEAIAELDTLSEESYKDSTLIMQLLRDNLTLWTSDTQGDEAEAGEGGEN
Briefly: FP assay with GR phosphorylated peptides and 14-3-3ζ. The format is binding. In outline:
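Fluorescence polarization (ex 485/em 520 nm) was read in triplicate after 30-min RT incubation. Binding data were fitted to a standard Hill equation and expressed in mP units. The dynamic range (ΔmP) is the difference between bound and free peptide signals.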

The target of assay [2] is T2, human 14-3-3ζ, full length, 6His-Linker-h14-3-3 (human, UniProt P63104 1-245).
T2 chain: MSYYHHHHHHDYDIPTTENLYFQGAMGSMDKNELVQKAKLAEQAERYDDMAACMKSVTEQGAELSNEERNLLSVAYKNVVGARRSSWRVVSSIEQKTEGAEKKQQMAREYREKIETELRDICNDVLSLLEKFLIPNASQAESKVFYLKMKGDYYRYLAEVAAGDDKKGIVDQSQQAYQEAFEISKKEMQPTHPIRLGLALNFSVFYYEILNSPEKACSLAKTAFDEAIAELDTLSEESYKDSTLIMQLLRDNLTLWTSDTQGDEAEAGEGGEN
Briefly: SPR. A general note: Surface plasmon resonance follows binding to a sensor surface in real time, without labels.

Assay [3] deals with T3, human 14-3-3σ, full length, 6His-Linker-h14-3-3 (human, UniProt P31947 1-248).
T3 construct: 14-3-3 protein sigma, human, cloned in pProEx Htb; also called σ isoform of human 14-3-3; source: E. coli BL21 (DE3)STAR, purified (Ni-NTA, SEC); not shown: His6 with linker [residues removed], N-terminal, kept
T3 sequence (looked up): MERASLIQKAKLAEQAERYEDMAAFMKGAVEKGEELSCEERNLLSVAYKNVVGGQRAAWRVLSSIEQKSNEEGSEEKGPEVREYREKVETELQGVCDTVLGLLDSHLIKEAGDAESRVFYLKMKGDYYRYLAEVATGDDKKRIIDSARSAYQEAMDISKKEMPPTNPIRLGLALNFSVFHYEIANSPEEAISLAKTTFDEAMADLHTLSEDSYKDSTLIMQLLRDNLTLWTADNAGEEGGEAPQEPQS
Briefly: fluorescence polarisation; FITC-labelled peptide at 60 nM (monophosphorylated) or 10 nM (doubly phosphorylated) titrated with 14-3-3ζ or 14-3-3σ in dilution series from 300 μM or 150 μM; 30 min at RT; 384-well plate; Hill fit; triplicates. The note with it: both partners purified.

Assay [4] addresses T2, human 14-3-3ζ, full length, …. Briefly: FP.
Where [5] appears, read: FITC-labeled peptide 60 nM (monophosphorylated) or 10 nM (doubly phosphorylated) titrated with 14-3-3ζ, 30 min RT, Hill fit, triplicates, read-out: Kd with 14-3-3ζ by FP.

For `CC(C)C[C@H](NC(=O)[C@H](CS)NC(=O)[C@H](CC(N)=O)NC(=O)[C@H](CCC(=O)O)NC(=O)[C@@H](N)CC(=O)O)C(=O)N[C@@H](CC(C)C)C(=O)N[C@@H](COP(=O)(O)O)C(=O)N1CCC[C@H]1C(=O)N[C@@H](CC(C)C)C(=O)N[C@@H](C)C(=O)NCC(=O)N[C@@H](CCC(=O)O)C(=O)N[C@@H](CC(=O)O)C(=O)O` [GR_pS226] (H-DENCLL[pS]PLAGED-OH; N-terminus assumed), the Kd in assay [1] (setting [5]) is over 150000 nM.

With `CC(C)C[C@H](NC(=O)[C@H](CC(C)C)NC(=O)[C@H](Cc1ccccc1)NC(=O)[C@H](COP(=O)(O)O)NC(=O)[C@H](CC(=O)O)NC(=O)[C@H](CC(=O)O)NC(=O)[C@H](CCC(=O)O)NC(=O)CNC(=O)[C@H](C)NC(=O)[C@@H](N)CC(C)C)C(=O)N[C@@H](CCC(=O)O)C(=O)NCC(=O)N[C@@H](CC(N)=O)C(=O)O` [GR_pS234] (H-LAGEDD[pS]FLLEGN-OH; N-terminus assumed), the Kd in assay [1] (setting [5]) is over 150000 nM. On to `CC(C)C[C@H](NC(=O)[C@@H](NC(=O)[C@@H](NC(=O)[C@H](CC(N)=O)NC(=O)[C@H](CO)NC(=O)[C@@H]1CCCN1C(=O)[C@H](COP(=O)(O)O)NC(=O)[C@H](CO)NC(=O)[C@H](CC(C)C)NC(=O)[C@@H](NC(=O)[C@H](CC(C)C)NC(=O)[C@H](CC(=O)O)NC(=O)CN)C(C)C)C(C)C)[C@@H](C)O)C(=O)O` [GR_pS267] (H-GDLVLS[pS]PSNVTL-OH; N-terminus assumed), for which the Kd in assay [1] (setting [5]) is over 150000 nM.

As to `CSCC[C@H](N)C(=O)N[C@@H](CCCNC(=N)N)C(=O)N1CCC[C@H]1C(=O)N[C@@H](CC(=O)O)C(=O)N[C@H](C(=O)N[C@@H](CO)C(=O)N[C@@H](COP(=O)(O)O)C(=O)N1CCC[C@H]1C(=O)N1CCC[C@H]1C(=O)N[C@@H](CO)C(=O)N[C@@H](CO)C(=O)N[C@@H](CO)C(=O)N[C@@H](CO)C(=O)O)C(C)C` [GR_pS404] (H-MRPDVS[pS]PPSSSS-OH; N-terminus assumed), the Kd in assay [1] (setting [5]) was over 150000 nM. As for `CC[C@H](C)[C@H](NC(=O)[C@@H](NC(=O)[C@@H](N)CCCCN)[C@@H](C)O)C(=O)N[C@H](C(=O)N1CCC[C@H]1C(=O)N[C@@H](C)C(=O)N[C@@H](COP(=O)(O)O)C(=O)N[C@@H](CC(C)C)C(=O)N1CCC[C@H]1C(=O)N[C@@H](CCC(N)=O)C(=O)N[C@@H](CC(C)C)C(=O)N[C@H](C(=O)N1CCC[C@H]1C(=O)NCC(=O)NCC(=O)NCC(=O)NCC(=O)NCC(=O)N[C@@H](CCCNC(=N)N)C(=O)N[C@@H](CO)C(=O)N[C@@H](Cc1ccc(O)cc1)C(=O)N[C@@H](CCCNC(=N)N)C(=O)N[C@@H](CCC(N)=O)C(=O)N[C@@H](CO)C(=O)N[C@@H](COP(=O)(O)O)C(=O)N[C@@H](C)C(=O)N[C@@H](CC(N)=O)C(=O)N[C@@H](CC(C)C)C(=O)N[C@@H](CC(C)C)C(=O)N[C@@H](CS)C(=O)N[C@@H](Cc1ccccc1)C(=O)O)[C@@H](C)O)C(C)C` [GR_pS524-pS617] (H-KTIVPA[pS]LPQLTPGGGGGRSYRQS[pS]ANLLCF-OH), the Kd in assay [1] (FP, doubly phosphorylated 31-mer peptides, triplicates, read-out: Kd with 14-3-3ζ (values in nM)) was determined as 140 nM.

Consider `CC(C)C[C@H](NC(=O)[C@H](CO)NC(=O)[C@H](CCC(=O)O)NC(=O)[C@H](CCCCN)NC(=O)[C@H](CO)NC(=O)[C@@H](N)CC(=O)O)C(=O)N[C@H](C(=O)N1CCC[C@H]1C(=O)NCC(=O)N[C@@H](CCCNC(=N)N)C(=O)N[C@@H](CCC(=O)O)C(=O)N[C@@H](CCC(=O)O)C(=O)N[C@@H](CC(N)=O)C(=O)O)[C@@H](C)OP(=O)(O)O` [GR_pT8] (H-DSKESL[pT]PGREEN-OH; N-terminus assumed), for which, in assay [1] (setting [5]), the Kd was over 150000 nM. As for `CC[C@H](C)[C@H](NC(=O)[C@@H](NC(=O)[C@@H](N)CCCCN)[C@@H](C)O)C(=O)N[C@H](C(=O)N1CCC[C@H]1C(=O)N[C@@H](C)C(=O)N[C@H](C(=O)N[C@@H](CC(C)C)C(=O)N1CCC[C@H]1C(=O)N[C@@H](CCC(N)=O)C(=O)N[C@@H](CC(C)C)C(=O)N[C@H](C(=O)N1CCC[C@H]1C(=O)NCC(=O)NCC(=O)NCC(=O)NCC(=O)NCC(=O)N[C@@H](CCCNC(=N)N)C(=O)N[C@@H](CO)C(=O)N[C@@H](Cc1ccc(O)cc1)C(=O)N[C@@H](CCCNC(=N)N)C(=O)N[C@@H](CCC(N)=O)C(=O)N[C@@H](CO)C(=O)N[C@@H](C)C(=O)N[C@@H](C)C(=O)N[C@@H](CC(N)=O)C(=O)N[C@@H](CC(C)C)C(=O)N[C@@H](CC(C)C)C(=O)N[C@@H](CS)C(=O)N[C@@H](Cc1ccccc1)C(=O)O)[C@@H](C)O)[C@@H](C)OP(=O)(O)O)C(C)C` [GR_pT524-S617A] (H-KTIVPA[pT]LPQLTPGGGGGRSYRQSAANLLCF-OH), the Kd in assay [1] (read-out: PKd with 14-3-3ζ (converted)) was 1260 nM.

For `CC[C@H](C)[C@H](NC(=O)[C@H](CCCNC(=N)N)NC(=O)[C@H](Cc1c[nH]c2ccccc12)NC(=O)[C@@H](N)[C@@H](C)O)C(=O)N[C@@H](CCSC)C(=O)N[C@H](C(=O)N[C@H](C(=O)N[C@@H](CC(C)C)C(=O)N[C@@H](CC(N)=O)C(=O)N[C@@H](CCSC)C(=O)N[C@@H](CC(C)C)C(=O)NCC(=O)NCC(=O)O)[C@@H](C)OP(=O)(O)O)[C@@H](C)O` [GR_pT562], in assay [1] (method not given, read-out: Kd with 14-3-3ζ), the Kd is 200000 nM. On to RSYRQS[pS]ANLLCF (not fully specified (N-terminus)) [GR_pS617, 13-mer phosphopeptide used for SPR and crystallography], for which the Kd in assay [2] was found to be 27 µM. Same read-out and setting: as for KTIVPATLPQLTP (also: phosphothreonine at T524, place in chain not given here) [GR_pT524, 13-mer phosphopeptide used for SPR and crystallography], the figure is 22 µM.

B1: GR pT561, FITC-labelled 13-mer phosphopeptide (peptide, UniProt P04150 555-567, looked up)
peptide: {FITC}-STWRIM[pT]TLNMLG
notes: glucocorticoid receptor (GR), human; 13-mer centred on T561; source: synthetic peptide
In the case of B1, the binding result in assay [3] is “binds”.

B2: GR_pS134, FITC-labelled 13-mer phosphopeptide (peptide, UniProt P04150 128-140, looked up)
peptide: {FITC′}-NLNRST[pS]VPENPK
modifications: also: phosphoserine at 134 (S5 or S7)
notes: glucocorticoid receptor (GR), human; 13-mer centred on S134; also called 13-mer peptide centered on GR S134; source: synthetic peptide
For the molecule B2, the Kd in assay [3] came to 110 µM.

B3: GR_pT524, FITC-labelled 13-mer phosphopeptide (peptide, UniProt P04150 518-530, looked up)
peptide: {FITC′}-KTIVPA[pT]LPQLTP
modifications: also: phosphothreonine at 524 (T2, T7 or T12)
notes: glucocorticoid receptor (GR), human; 13-mer centred on T524; source: synthetic peptide
Consider B3, for which, in assay [3], the binding result is listed as “binds”.

B4: GR pT635, FITC-labelled 13-mer phosphopeptide (peptide, UniProt P04150 629-641, looked up)
peptide: {FITC}-INEQRM[pT]LPCMYD
notes: glucocorticoid receptor (GR), human; 13-mer centred on T635; source: synthetic peptide
With B4, in assay [3], the binding result is reported as “binds”.

As for {FITC}-KTIVPATLPQLTP (also: phosphothreonine at T524, place in chain not given here), the Kd in assay [4] amounted to 38 µM.

B5: GR pS83, FITC-labelled 13-mer phosphopeptide (peptide, UniProt P04150 77-89, looked up)
peptide: {FITC}-DLSKAV[pS]LSMGLY
notes: glucocorticoid receptor (GR), human; 13-mer centred on S83; source: synthetic peptide
For the molecule B5, in assay [3], the binding result is “binds”. For the same molecule, the Kd in assay [4] amounted to 72 µM.

For {FITC}-INEQRM[pT]LPCMYD (also: phosphothreonine at T635, place in chain not given here), the Kd in assay [4] stood at 55 µM.

B6: GR_pS617, FITC-labelled 13-mer phosphopeptide (peptide, UniProt P04150 611-623, looked up)
peptide: {FITC′}-RSYRQS[pS]ANLLCF
modifications: also: phosphoserine at 617 (S6 or S7)
notes: glucocorticoid receptor (GR), human; 13-mer centred on S617; source: synthetic peptide
In the case of B6, the binding result in assay [3] was “binds”. The molecule also came in with a Kd in assay [4] of 25 µM.
